In patent US20230312722A1 (NONA BIOSCIENCES SUZHOU, published 2023):
Blank lines part the entries; values can stand above or below the binder they belong to.

Key:
CD3 on human T cells [1] = target: T1, CD3 on human T cells (human, UniProt P07766 23-207; P04234 22-171; P09693 23-182); test: FACS on human T cells; EC50 printed as n.d., curve still rising at 100 nM
Procedure: (§1) SK-BR-3 cells were digested. T cells were isolated using the human T cell isolation kit (Miltenyi, #130-096-535) as described in the method of the instruction, and resuspended with PBS containing 2% BSA. The cell density was adjusted to 1×10⁶ cells/mL. The cells were seeded in a 96-well V-bottom plate (Corning, #3894) at 100 μL/well, followed by the addition of test antibodies diluted in a 3-fold gradient at a concentration that was 2 times the final concentration, each at 100 μL/well. The cells were incubated at 4° C. for 2 h away from light. Thereafter, the cells in each well were rinsed twice with 100 μL of pre-cooled PBS containing 2% BSA, and centrifuged at 500 g at 4° C. for 5 min, and then the supernatant was discarded. Then each well was added with 100 μL of fluorescent secondary antibody (Alexa Fluor 488-conjugated AffiniPure Goat Anti-Human IgG, Fcγ Fragment Specific, Jackson, #109-545-098, diluted in a 1:500 ratio), and the plate was incubated away from light at 4° C. for 1 h. The cells in each well were washed twice with 100 μL of pre-cooled PBS containing 2% BSA, and centrifuged at 500 g at 4° C. for 5 minutes, and then the supernatant was discarded. Finally, the cells in each well were resuspended with 200 μL of pre-cooled PBS containing 2% BSA, and the fluorescence signal values were read using an ACEA Novocyte3000 flow cytometer.

[2] = target: T2, human B7H4 on the cell surface (human, UniProt Q7Z7D3 25-282); test: FACS on SK-BR-3 cells
T2 construct: whole, on cells; also called CHOK1/hu B7H4; B7H4 on SK-BR-3
T2 sequence (looked up): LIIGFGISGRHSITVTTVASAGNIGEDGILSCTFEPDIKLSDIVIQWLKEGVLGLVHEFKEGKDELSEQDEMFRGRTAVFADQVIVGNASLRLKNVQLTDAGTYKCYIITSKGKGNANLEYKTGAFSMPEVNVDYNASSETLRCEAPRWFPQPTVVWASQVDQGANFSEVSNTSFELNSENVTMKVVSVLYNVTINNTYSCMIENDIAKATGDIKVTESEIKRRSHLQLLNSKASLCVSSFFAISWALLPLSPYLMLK
Procedure: as §1

CD3 on human T cells [3] = target: T1, CD3 on human T cells; test: FACS on human T cells
Procedure: as §1

T1 sequence (P07766 23-207 limits assumed, chain 1 of 3): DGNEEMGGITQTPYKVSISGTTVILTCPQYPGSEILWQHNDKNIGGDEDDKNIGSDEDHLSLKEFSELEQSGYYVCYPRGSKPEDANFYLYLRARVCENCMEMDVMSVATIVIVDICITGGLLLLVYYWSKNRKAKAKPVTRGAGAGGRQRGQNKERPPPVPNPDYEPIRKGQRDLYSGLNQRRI
T1 sequence (P04234 22-171 limits assumed, chain 2 of 3): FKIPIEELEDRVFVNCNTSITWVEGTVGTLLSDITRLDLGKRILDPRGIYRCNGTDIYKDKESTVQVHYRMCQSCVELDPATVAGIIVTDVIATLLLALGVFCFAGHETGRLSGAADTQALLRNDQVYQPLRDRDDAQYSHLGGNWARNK
T1 sequence (P09693 23-182 limits assumed, chain 3 of 3): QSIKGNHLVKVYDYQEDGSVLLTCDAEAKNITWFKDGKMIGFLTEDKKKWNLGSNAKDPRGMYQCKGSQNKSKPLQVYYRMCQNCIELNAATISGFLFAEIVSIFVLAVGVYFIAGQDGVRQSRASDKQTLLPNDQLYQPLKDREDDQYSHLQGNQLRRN

B1: PR002855 (bispecific antibody, human IgG1, kappa, lambda, L234A L235A)
chain 1: EVQLLESGGGLVQPGGSLRLSCAASGFTFSTYAMNWVRQAPGKGLEWVSRIRSKYNNYATYYADSVKDRFTISRDDSKSTLYLQMNSLRAEDTAVYYCVRHGNFGNSYVSWFAYWGQGTLVTVSSASTKGPSVFPLAPSSKSTSGGTAALGCLVKDYFPEPVTVSWNSGALTSGVHTFPAVLQSSGLYSLSSVVTVPSSSLGTQTYICNVNHKPSNTKVDKKVEPKSC
chain 2: QAVVTQEPSLTVSPGGTVTLTCRSSTGAVTTSNYANWVQQKPGQAPRGLIGGTNKRAPWTPARFSGSLLGDKAALTLLGAQPEDEAEYFCALWYSNLWVFGGGTKLTVLGQPKAAPSVTLFPPSSEELQANKATLVCLISDFYPGAVTVAWKADSSPVKAGVETTTPSKQSNNKYAASSYLSLTPEQWKSHRSYSCQVTHEGSTVEKTVAPTECSDKTHTCPPCPAPEAAGGPSVFLFPPKPKDTLMISRTPEVTCVVVDVSHEDPEVKFNWYVDGVEVHNAKTKPREEQYNSTYRVVSVLTVLHQDWLNGKEYKCKVSNKALGAPIEKTISKAKGQPREPQVYTLPPCREEMTKNQVSLWCLVKGFYPSDIAVEWESNGQPENNYKTTPPVLDSDGSFFLYSKLTVDKSRWQQGNVFSCSVMHEALHNHYTQKSLSLSPGK
heavy: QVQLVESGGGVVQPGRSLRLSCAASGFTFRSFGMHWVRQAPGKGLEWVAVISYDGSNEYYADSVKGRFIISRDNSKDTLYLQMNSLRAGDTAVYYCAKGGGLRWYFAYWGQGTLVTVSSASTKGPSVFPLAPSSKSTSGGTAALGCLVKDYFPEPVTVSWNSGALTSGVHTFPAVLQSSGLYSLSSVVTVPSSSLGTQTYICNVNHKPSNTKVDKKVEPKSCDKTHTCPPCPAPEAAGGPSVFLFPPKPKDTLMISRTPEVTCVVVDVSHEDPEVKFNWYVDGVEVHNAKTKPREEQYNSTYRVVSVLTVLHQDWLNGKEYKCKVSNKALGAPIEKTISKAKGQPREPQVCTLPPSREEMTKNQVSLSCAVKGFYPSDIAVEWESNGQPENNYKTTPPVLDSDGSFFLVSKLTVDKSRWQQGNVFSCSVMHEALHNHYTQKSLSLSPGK
light: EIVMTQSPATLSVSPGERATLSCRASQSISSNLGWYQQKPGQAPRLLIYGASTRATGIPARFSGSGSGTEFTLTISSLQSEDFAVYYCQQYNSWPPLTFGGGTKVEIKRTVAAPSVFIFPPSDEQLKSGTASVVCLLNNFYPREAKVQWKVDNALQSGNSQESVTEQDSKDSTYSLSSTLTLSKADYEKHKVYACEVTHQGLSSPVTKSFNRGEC
notes: B7H4 x CD3, 1+1 Fab-Fc-crossFab (structure 4): CD3 Fab(cross Fd/LC) from PR001924 (chains 1 and 2), B7H4 Fab from PR001476 (chains 3 and 4)
Maximum MFI (CD3 on human T cells [1]): 197000
EC50 [2]: 4.05 nM
Maximum MFI [2]: 179000

B4: PR002857 (bispecific antibody, human IgG1, kappa, lambda, L234A L235A)
chain 1: B1 chain 1
chain 2: B1 chain 2
heavy: not shown
light: not shown
notes: B7H4 x CD3, 1+1 Fab-Fc-crossFab (structure 4): CD3 crossFab from PR001924, B7H4 Fab from PR002408
Maximum MFI (CD3 on human T cells [1]): 187000

B5: PR003733 (bispecific antibody, human IgG1, lambda, L234A L235A)
light: QAVVTQEPSLTVSPGGTVTLTCRSSTGAVTTSNYANWVQQKPGQAPRGLIGGTNKRAPWTPARFSGSLLGDKAALTLLGAQPEDEAEYFCALWYSNLWVFGGGTKLTVLGQPKAAPSVTLFPPSSEELQANKATLVCLISDFYPGAVTVAWKADSSPVKAGVETTTPSKQSNNKYAASSYLSLTPEQWKSHRSYSCQVTHEGSTVEKTVAPTECS
heavy: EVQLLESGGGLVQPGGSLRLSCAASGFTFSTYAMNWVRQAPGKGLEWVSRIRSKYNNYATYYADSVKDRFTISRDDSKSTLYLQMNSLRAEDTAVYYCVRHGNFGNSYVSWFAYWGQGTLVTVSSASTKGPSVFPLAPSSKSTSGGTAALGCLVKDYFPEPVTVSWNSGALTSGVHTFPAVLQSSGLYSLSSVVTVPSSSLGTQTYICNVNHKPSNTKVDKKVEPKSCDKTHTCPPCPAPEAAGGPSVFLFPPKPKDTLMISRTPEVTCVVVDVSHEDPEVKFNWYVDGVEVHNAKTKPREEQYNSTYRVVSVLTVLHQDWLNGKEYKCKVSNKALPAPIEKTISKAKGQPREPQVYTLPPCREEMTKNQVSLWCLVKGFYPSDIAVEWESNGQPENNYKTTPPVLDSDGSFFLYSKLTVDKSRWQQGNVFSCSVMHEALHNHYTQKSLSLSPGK
chain: EIVMTQSPASLSVSPGERATLSCRASQSVSSNLAWYQQKPGQAPRLLIYGASTRATGIPARVSGGGSGTEFTLTISSLQSEDFAVYYCQQYKNWPFTFGPGTKLEIKGGGGSGGGGSGGGGSGGGGSQVQLVQSGAEVKKPGSSMRVSCKASEDTFSSYAISWVRQAPGQGLEWMGGTAPIFGTTNYAQKFQGRVTITADKSTSTAYMELSSLRSEDTAVYYCARGGPYFDYWGQGTLVTVSSASEPKSSDKTHTCPPCPAPEAAGGPSVFLFPPKPKDTLMISRTPEVTCVVVDVSHEDPEVKFNWYVDGVEVHNAKTKPREEQYNSTYRVVSVLTVLHQDWLNGKEYKCKVSNKALPAPIEKTISKAKGQPREPQVCTLPPSREEMTKNQVSLSCAVKGFYPSDIAVEWESNGQPENNYKTTPPVLDSDGSFFLVSKLTVDKSRWQQGNVFSCSVMHEALHNHYTQKSLSLSPGK
notes: B7H4 x CD3, 1+1 Fab-Fc-scFv: CD3 Fab from PR001848 (knob, LALA; strong CD3 end), B7H4 scFv(VL-VH)-Fc (hole, LALA)
EC50 [2]: 71.2 nM
Maximum MFI [2]: 214000

B6: PR003899 (bispecific antibody, human IgG1, lambda, L234A L235A)
light: B5 light
heavy: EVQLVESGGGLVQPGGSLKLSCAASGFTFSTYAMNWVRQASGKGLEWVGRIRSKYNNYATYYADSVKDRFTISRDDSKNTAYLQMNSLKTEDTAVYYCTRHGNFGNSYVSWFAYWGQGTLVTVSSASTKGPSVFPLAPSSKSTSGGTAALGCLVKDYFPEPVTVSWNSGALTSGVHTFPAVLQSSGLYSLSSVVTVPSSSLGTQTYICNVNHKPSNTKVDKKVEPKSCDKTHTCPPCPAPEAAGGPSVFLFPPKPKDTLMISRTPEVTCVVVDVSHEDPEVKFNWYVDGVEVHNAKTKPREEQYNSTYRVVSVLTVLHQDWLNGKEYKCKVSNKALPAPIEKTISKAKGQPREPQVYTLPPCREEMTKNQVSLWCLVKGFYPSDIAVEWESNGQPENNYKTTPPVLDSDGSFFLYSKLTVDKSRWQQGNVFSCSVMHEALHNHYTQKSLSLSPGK
chain: B5 chain
notes: B7H4 x CD3, 1+1 Fab-Fc-scFv: CD3 Fab from PR003886 (knob, LALA; weak CD3 end), B7H4 scFv(VL-VH)-Fc (hole, LALA)
binding result (CD3 on human T cells [3]): no binding (tested: 100 nM)
EC50 [2]: 51.2 nM
Maximum MFI [2]: 227000

B7: PR002849 (bispecific antibody, human IgG1, kappa, L234A L235A)
light: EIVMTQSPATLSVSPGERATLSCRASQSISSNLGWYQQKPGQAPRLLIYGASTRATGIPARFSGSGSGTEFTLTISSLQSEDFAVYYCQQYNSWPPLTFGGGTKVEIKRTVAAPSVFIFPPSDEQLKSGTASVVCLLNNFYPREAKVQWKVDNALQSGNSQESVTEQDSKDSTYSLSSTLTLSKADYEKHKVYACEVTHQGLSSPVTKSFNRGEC
heavy: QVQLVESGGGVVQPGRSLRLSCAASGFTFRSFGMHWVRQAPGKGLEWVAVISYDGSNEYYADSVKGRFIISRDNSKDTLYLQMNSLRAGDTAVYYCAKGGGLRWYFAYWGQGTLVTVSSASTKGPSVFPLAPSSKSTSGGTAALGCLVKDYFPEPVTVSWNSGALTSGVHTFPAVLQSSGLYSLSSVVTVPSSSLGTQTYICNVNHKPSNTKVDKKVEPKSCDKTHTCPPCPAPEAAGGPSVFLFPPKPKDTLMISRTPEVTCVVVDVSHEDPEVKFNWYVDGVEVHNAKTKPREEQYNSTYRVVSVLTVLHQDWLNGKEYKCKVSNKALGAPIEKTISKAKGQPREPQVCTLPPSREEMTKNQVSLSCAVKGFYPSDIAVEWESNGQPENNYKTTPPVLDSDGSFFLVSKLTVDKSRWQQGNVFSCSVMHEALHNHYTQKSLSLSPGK
chain: QAVVTQEPSLTVSPGGTVTLTCRSSTGAVTTSNYANWVQQKPGQAPRGLIGGTNKRAPWTPARFSGSLLGDKAALTLLGAQPEDEAEYFCALWYSNLWVFGGGTKLTVLGGGQSGQGGSGGGGSEVQLVESGGGLVQPGGSLKLSCAASGFTFNTYAMNWVRQASGKGLEWVGRIRSKYNNYATYYADSVKDRFTISRDDSKSTLYLQMNSLKTEDTAVYYCVRHGNFGNSYVSWFAYWGQGTLVTVSSASEPKSSDKTHTCPPCPAPEAAGGPSVFLFPPKPKDTLMISRTPEVTCVVVDVSHEDPEVKFNWYVDGVEVHNAKTKPREEQYNSTYRVVSVLTVLHQDWLNGKEYKCKVSNKALGAPIEKTISKAKGQPREPQVYTLPPCREEMTKNQVSLWCLVKGFYPSDIAVEWESNGQPENNYKTTPPVLDSDGSFFLYSKLTVDKSRWQQGNVFSCSVMHEALHNHYTQKSLSLSPGK
notes: B7H4 x CD3, 1+1 Fab-Fc-scFv (structure 1): B7H4 Fab from PR001476 (hole, AAG), CD3 scFv(VL-VH)-Fc from PR000627 (knob, AAG)
Maximum MFI (CD3 on human T cells [1]): 121000
EC50 [2]: 0.933 nM
Maximum MFI [2]: 146000

B8: PR002851 (bispecific antibody, human IgG1, kappa, L234A L235A)
light: not shown
heavy: not shown
chain: B7 chain
notes: B7H4 x CD3, 1+1 Fab-Fc-scFv (structure 1): B7H4 Fab from PR002408, CD3 scFv-Fc from PR000627
Maximum MFI (CD3 on human T cells [1]): 125000

Continued by falling EC50 [2], values first:

Maximum MFI (CD3 on human T cells [1]): 189000
EC50 [2]: 1.32 nM
Maximum MFI [2]: 212000
B3: PR002856 (bispecific antibody, human IgG1, kappa, lambda, L234A L235A)
chain 1: B1 chain 1
chain 2: B1 chain 2
heavy: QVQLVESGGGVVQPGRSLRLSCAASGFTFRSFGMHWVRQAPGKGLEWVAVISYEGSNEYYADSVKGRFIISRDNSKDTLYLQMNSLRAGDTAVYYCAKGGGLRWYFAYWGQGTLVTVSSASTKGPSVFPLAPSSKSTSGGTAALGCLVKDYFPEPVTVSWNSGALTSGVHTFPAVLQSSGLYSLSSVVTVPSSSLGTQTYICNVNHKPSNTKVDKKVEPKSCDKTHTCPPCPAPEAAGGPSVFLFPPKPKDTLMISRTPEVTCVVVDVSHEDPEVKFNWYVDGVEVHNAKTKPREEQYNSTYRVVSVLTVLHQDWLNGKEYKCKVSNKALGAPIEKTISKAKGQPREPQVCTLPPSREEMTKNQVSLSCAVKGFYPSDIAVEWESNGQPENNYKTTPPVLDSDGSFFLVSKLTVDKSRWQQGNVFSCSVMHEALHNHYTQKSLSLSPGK
light: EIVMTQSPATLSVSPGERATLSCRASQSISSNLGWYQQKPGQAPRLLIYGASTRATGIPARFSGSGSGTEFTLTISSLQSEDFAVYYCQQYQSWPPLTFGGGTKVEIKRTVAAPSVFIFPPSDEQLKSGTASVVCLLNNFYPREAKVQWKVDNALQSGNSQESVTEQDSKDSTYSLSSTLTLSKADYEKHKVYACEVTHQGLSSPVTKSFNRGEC
notes: B7H4 x CD3, 1+1 Fab-Fc-crossFab (structure 4): CD3 crossFab from PR001924, B7H4 Fab from PR002405

Maximum MFI (CD3 on human T cells [1]): 133000
EC50 [2]: 0.676 nM
Maximum MFI [2]: 179000
B9: PR002850 (bispecific antibody, human IgG1, kappa, L234A L235A)
light: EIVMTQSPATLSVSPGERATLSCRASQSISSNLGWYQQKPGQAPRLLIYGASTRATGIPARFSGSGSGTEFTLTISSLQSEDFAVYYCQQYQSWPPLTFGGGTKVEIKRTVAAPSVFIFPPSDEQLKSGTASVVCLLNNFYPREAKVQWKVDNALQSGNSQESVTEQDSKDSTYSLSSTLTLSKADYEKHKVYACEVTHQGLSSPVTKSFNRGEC
heavy: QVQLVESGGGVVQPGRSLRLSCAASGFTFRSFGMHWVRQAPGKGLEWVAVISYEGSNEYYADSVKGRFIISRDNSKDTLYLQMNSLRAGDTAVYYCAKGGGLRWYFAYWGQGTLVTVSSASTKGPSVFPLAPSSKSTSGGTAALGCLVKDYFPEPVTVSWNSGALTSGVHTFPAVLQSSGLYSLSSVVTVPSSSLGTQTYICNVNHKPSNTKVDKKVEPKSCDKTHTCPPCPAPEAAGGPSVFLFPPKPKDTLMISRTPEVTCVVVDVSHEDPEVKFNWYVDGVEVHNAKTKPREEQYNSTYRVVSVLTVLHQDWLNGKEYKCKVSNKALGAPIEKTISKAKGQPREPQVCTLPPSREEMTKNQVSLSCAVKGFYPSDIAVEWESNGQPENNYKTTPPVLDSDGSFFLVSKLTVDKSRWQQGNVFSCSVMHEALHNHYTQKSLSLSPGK
chain: B7 chain
notes: B7H4 x CD3, 1+1 Fab-Fc-scFv (structure 1): B7H4 Fab from PR002405, CD3 scFv-Fc from PR000627

Maximum MFI (CD3 on human T cells [1]): 73600
EC50 [2]: 0.145 nM
Maximum MFI [2]: 193000
B2: PR002987 (bispecific antibody, human IgG1, kappa, lambda, L234A L235A)
chain 1: B1 chain 1
chain 2: not shown
heavy: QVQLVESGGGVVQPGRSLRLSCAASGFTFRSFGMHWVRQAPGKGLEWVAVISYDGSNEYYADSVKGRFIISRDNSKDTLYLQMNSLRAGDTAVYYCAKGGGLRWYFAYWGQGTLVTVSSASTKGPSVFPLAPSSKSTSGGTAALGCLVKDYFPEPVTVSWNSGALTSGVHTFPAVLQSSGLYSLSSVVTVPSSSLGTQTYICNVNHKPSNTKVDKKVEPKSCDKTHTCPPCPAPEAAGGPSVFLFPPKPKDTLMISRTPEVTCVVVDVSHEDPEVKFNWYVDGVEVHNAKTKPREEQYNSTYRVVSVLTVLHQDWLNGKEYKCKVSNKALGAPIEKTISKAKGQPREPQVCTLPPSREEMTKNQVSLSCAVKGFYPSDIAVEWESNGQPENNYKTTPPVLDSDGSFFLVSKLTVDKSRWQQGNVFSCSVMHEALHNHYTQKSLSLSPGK
light: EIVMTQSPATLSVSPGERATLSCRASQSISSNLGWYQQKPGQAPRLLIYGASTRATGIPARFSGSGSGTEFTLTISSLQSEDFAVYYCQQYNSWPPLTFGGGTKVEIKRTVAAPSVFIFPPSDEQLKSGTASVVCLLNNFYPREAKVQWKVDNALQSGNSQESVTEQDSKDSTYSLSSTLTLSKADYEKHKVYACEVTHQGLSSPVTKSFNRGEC
notes: B7H4 x CD3, 2+1 asymmetric structure (structure 5): CD3 end from PR001924, two B7H4 Fabs from PR001476
